Molecular target: the molecule itself
Assay: sedimentation equilibrium AUC

B1: p150Glued CC1 CC1 (protein)
chain: SKEEEGLRAQVRDLEEKLETLRLKRAEDKAKLKELEKHKIQLEQVQEWKSKMQEQQADLQRRLKEARKEAKEALEAKERYMEEMADTADAIEMATLDKEMAEERAESLQQEVEALKERVDELTTDLEILKAEIEEKGSDGAASSYQLKQLEEQNARLKDALVRMRDLSSSEKQEHVKLQKLMEKKNQELEVVRQQRERLQEELSQAESTIDELKEQVDAALGAEEMVEMLTDRNLNLEEKVRELRETVGDLEAMNEMNDELQENARETELELREQLDMAGARVREAQKRVEAAQETVADYQQTIKKYRQLTAHLQDVNRELTNQQEASVERQQQ
Kd: < 1 nM
